Data as given in patent US20090099029A1, “Methods and substrates for conducting assays” (Invitrogen Corporation, priority 2005, published 2009).

B1: CHEK1 (protein)
chain: MAVPFVEDWDLVQTLGEGAYGEVQLAVNRVTEEAVAVKIVDMKRAVDCPENIKKEICINKMLNHENVVKFYGHRREGNIQYLFLEYCSGGELFDRIEPDIGMPEPDAQRFFHQLMAGVVYLHGIGITHRDIKPENLLLDERDNLKISDFGLATVFRYNNRERLLNKMCGTLPYVAPELLKRREFHAEPVDVWSCGIVLTAMLAGELPWDQPSDSCQEYSDWKEKKTYLNPWKKIDSAPLALLHKILVENPSARITIPDIKKDRWYNKPLKKGAKRPRVTSGGVSESPSGFSKHIQSNLDFSPVNSASSEENVKYSSSQPEPRTGLSLWDTSPSYIDKLVQGISFSQPTCPDHMLLNSQLLGTPGSSQNPWQRLVKRMTRFFTKLDADKSYQCLKETCEKLGYQWKKSCMNQVTISTTDRRNNKLIFKVNLLEMDDKILVDFRLSKGDGLEFKRHFLKIKGKLIDIVSSQKIWLPAT
modifications: left off: small tags and cut ends
B2: CSNK1D(CK1delta) (protein)
chain: MELRVGNRYRLGRKIGSGSFGDIYLGTDIAAGEEVAIKLECVKTKHPQLHIESKIYKMMQGGVGIPTIRWCGAEGDYNVMVMELLGPSLEDLFNFCSRKFSLKTVLLLADQMISRIEYIHSKNFIHRDVKPDNFLMGLGKKGNLVYIIDFGLAKKYRDARTHQHIPYRENKNLTGTARYASINTHLGIEQSRRDDLESLGYVLMYFNLGSLPWQGLKAATKRQKYERISEKKMSTPIEVLCKGYPSEFATYLNFCRSLRFDDKPDYSYLRQLFRNLFHRQGFSYDYVFDWNMLKFGASRAADDAERERRDREERLRHSRNPATRGLPSTASGRLRGTQEVAPPTPLTPTSHTANTSPRPVSGMERERKVSMRLHRGAPVNISSSDLTGRQDTSRMSTSQNSIPFEHHGK
modifications: left off: a dimerising Fc or GST
B3: EPHA2 (protein)
chain: HRRRKNQRARQSPEDVYFSKSEQLKPLKTYVDPHTYEDPNQAVLKFTTEIHPSCVTRQKVIGAGEFGEVYKGMLKTSSGKKEVPVAIKTLKAGYTEKQRVDFLGEAGIMGQFSHHNIIRLEGVISKYKPMMIITEYMENGALDKFLREKDGEFSVLQLVGMLRGIAAGMKYLANMNYVHRDLAARNILVNSNLVCKVSDFGLSRVLEDDPEATYTTSGGKIPIRWTAPEAISYRKFTSASDVWSFGIVMWEVMTYGERPYWELSNHEVMKAINDGFRLPTPMDCPSAIYQLMMQCWQQERARRPKFADIVSILDKLIRAPDSLKTLADFDPRVSIRLPSTSGSEGVPFRTVSEWLESIKMQQYTEHFMAAGYTAIEKVVQMTNDDIKRIGVRLPGHQKRIAYSLLGLKDQVNTVGIPI
modifications: left off: a dimerising Fc or GST
B4: DAPK3(ZIPK) (protein)
chain: MSTFRQEDVEDHYEMGEELGSGQFAIVRKCRQKGTGKEYAAKFIKKRRLSSSRRGVSREEIEREVNILREIRHPNIITLHDIFENKTDVVLILELVSGGELFDFLAEKESLTEDEATQFLKQILDGVHYLHSKRIAHFDLKPENIMLLDKNVPNPRIKLIDFGIAHKIEAGNEFKNIFGTPEFVAPEIVNYEPLGLEADMWSIGVITYILLSGASPFLGETKQETLTNISAVNYDFDEEYFSNTSELAKDFIRRLLVKDPKRRMTIAQSLEHSWIKAIRRRNVRGEDSGRKPERRRLKTTRLKEYTIKSHSSLPPNNSYADFERFSKVLEEAAAAEEGLRELQRSRRLCHEDVEALAAIYEEKEAWYREESDSLGQDLRRLRQELLKTEALKRQAQEEAKGALLGTSGLKRRFSRLENRYEALAKQVASEMRFVQDLVRALEQEKLQGVECGLR
modifications: left off: a dimerising Fc or GST
B5: DAPK2 (protein)
chain: MFQASMRSPNMEPFKQQKVEDFYDIGEELGSGQFAIVKKCREKSTGLEYAAKFIKKRQSRASRRGVSREEIEREVSILRQVLHHNVITLHDVYENRTDVVLILELVSGGELFDFLAQKESLSEEEATSFIKQILDGVNYLHTKKIAHFDLKPENIMLLDKNIPIPHIKLIDFGLAHEIEDGVEFKNIFGTPEFVAPEIVNYEPLGLEADMWSIGVITYILLSGASPFLGDTKQETLANITAVSYDFDEEFFSQTSELAKDFIRKLLVKETRKRLTIQEALRHPWITPVDNQQAMVRRESVVNLENFRKQYVRRRWKLSFSIVSLCNHLTRSLMKKVHLRPDEDLRNCESDTEEDIARRKALHPRRRSSTS
modifications: left off: a dimerising Fc or GST
B6: CSNK2A2 (protein)
chain: MPGPAAGSRARVYAEVNSLRSREYWDYEAHVPSWGNQDDYQLVRKLGRGKYSEVFEAINITNNERVVVKILKPVKKKKIKREVKILENLRGGTNIIKLIDTVKDPVSKTPALVFEYINNTDFKQLYQILTDFDIRFYMYELLKALDYCHSKGIMHRDVKPHNVMIDHQQKKLRLIDWGLAEFYHPAQEYNVRVASRYFKGPELLVDYQMYDYSLDMWSLGCMLASMIFRREPFFHGQDNYDQLVRIAKVLGTEELYGYLKKYHIDLDPHFNDILGQHSRKRWENFIHSENRHLVSPEALDLLDKLLRYDHQQRLTAKEAMEHPYFYPVVKEQSQPCADNAVLSSGLTAAR
modifications: left off: a dimerising Fc or GST
B7: DMPK (protein)
chain: MSAEVRLRRLQQLVLDPGFLGLEPLLDLLLGVHQELGASELAQDKYVADFLQWAEPIVVRLKEVRLQRDDFEILKVIGRGAFSEVAVVKMKQTGQVYAMKIMNKWDMLKRGEVSCFREERDVLVNGDRRWITQLHFAFQDENYLYLVMEYYVGGDLLTLLSKFGERIPAEMARFYLAEIVMAIDSVHRLGYVHRDIKPDNILLDRCGHIRLADFGSCLKLRADGTVRSLVAVGTPDYLSPEILQAVGGGPGTGSYGPECDWWALGVFAYEMFYGQTPFYADSTAETYGKIVHYKEHLSLPLVDEGVPEEARDFIQRLLCPPETRLGRGGAGDFRTHPFFFGLDWDGLRDSVPPFTPDFEGATDTCNFDLVEDGLTAMVSGGGETLSDIREGAPLGVHLPFVGYSYSCMALRDSEVPGPTPMELEAEQLLEPHVQAPSLEPSVSPQDETAEVAVPAAVPAAEAEAEVTLRELQEALEEEVLTRQSLSREMEAIRTDNQNFASQLREAEARNRDLEAHVRQLQERMELLQAEGATAVTGVPSPRATDPPSHLDGPPAVAVGQCPLVGPGPMHRRHLLLPARVPRPGLSEALSLLLFAVVLSRAAALGCIGLVAHAGQLTAVWRRPGAARAP
modifications: left off: a dimerising Fc or GST
B8: EPHA1 (protein)
chain: RSRRAQRQRQQRQRDRATDVDREDKLWLKPYVDLQAYEDPAQGALDFTRELDPAWLMVDTVIGEGEFGEVYRGTLRLPSQDCKTVAIKTLKDTSPGGQWWNFLREATIMGQFSHPHILHLEGVVTKRKPIMIITEFMENGALDAFLREREDQLVPGQLVAMLQGIASGMNYLSNHNYVHRDLAARNILVNQNLCCKVSDFGLTRLLDDFDGTYETQGGKIPIRWTAPEAIAHRIFTTASDVWSFGIVMWEVLSFGDKPYGEMSNQEVMKSIEDGYRLPPPVDCPAPLYELMKNCWAYDRARRPHFQKLQAHLEQLLANPHSLRTIANFDPRMTLRLPSLSGSDGIPYRTVSEWLESIRMKRYILHFHSAGLDTMECVLELTAEDLTQMGITLPGHQKRILCSIQGFKD
modifications: left off: a dimerising Fc or GST

These molecules were tested on kinases of Table 6 on Myelin Basic Protein (MBP) (assay: Kinase assay using MBP substrate, ProQ Diamond stain (Table 6)). Details: kinase printed on MBP-coated slide; 20 uM ATP, 30° C.; ProQ Diamond Microarray Stain; graded Strong/Weak/Negative.
Format: biochemical
Protocol: In this illustrative example, four-well slides were designed with a hydrophobic mask surrounding 4-wells of aldehyde- or epoxy-coated glass (smooth or ES grade; Erie Scientific (Portsmouth, N.H.)). […] Bovine, dephosphorylated, Myelin Basic Protein (MBP) was purchased from Upstate Biotechnology (#13-110). MBP was diluted to 1 mg/ml in PBS, applied to the slide surface, covered with a coverslip, and left overnight at 4° C. to coat the slide with the MBP. Slides were washed 3 times with water and spun dry before printing.
Kinases were purchased from Panvera (Invitrogen, Carlsbad, Calif.), diluted in printing buffer (50 mM Tris pH 7.5, 25% glyercol, 0.05% TritonX-100, 2 mM DTT) and deposited using a GeneMachine OmniGrid100. Slides were stored at −20° C.
Reactions were performed following removal of the slide from the freezer. Reaction buffer (20 mM HEPES pH 7.5, 4 mM MgCl2, 2 mM DTT, 20 uM ATP, 5% DMSO) was added with or without inhibitor, a coverslip applied, and the slide placed at 30° C. for the appropriate reaction time. The slide was washed with water to stop the reaction (3 times) and spun dry. ProQ Diamond Microarray Stain (Invitrogen #P33706) was applied, covered with a coverslip, and the slide was incubated in the dark at room temperature for 30 minutes. The slide was destained and washed three times with water, and spun dry.
With B1 the “MBP Kinase Activity” value was “Strong”.
With B2 the “MBP Kinase Activity” value was “Negative”.
B3 was tested, and the “MBP Kinase Activity” value was “Weak”.
For B4, the “MBP Kinase Activity” value was “Negative”.
For B5, the “MBP Kinase Activity” value was “Negative”.
In the case of B6, the “MBP Kinase Activity” value is reported as “Negative”.
With B7 the “MBP Kinase Activity” value was “Negative”.
With B8 the “MBP Kinase Activity” value was “Strong”.
